Reference: US20210023129A1, “PLATINUM PRODRUG PERFLUOROARYL PEPTIDE CONJUGATES” (MASSACHUSETTS INSTITUTE OF TECHNOLOGY, priority 2019, published 2021)
*1 amine or outer side, *2 acyl side, *3 side chain or, on linkers, in order; H or OH if unused. Where a SMILES comes first, the peptide text is derived from it. Bridges are numbered along the chain shown (N, C = ends). Perfluorobiphenyl(4,4') = Fc1c(F)c([*:1])c(F)c(F)c1-c1c(F)c(F)c([*:2])c(F)c1F; Suc = O=C(CCC(=O)[*:2])[*:1]

Legend:
[1] = test system: G9 neurospheres (patient-derived glioma cells); details: for IC50: read-out: IC50 against the G9 cells, treated for 80 hours, CellTiter-Glo
Method: The cytotoxicity of the PtIV-M13 conjugate was evaluated against patient-derived glioma cells (GCs). To evaluate the in vitro efficacy of the conjugate, G9 neurospheres were treated with PtIV-M13, prodrug 4, and cisplatin for 80 hours. After treatment, the potency of the compounds was assessed by the CellTiter-Glo luminescent cell viability assay (FIGS. 2A and 2B). The assay involves lysis of the cells and quantitation of the amount of ATP present, which is directly proportional to the number of living cells in culture. […] The same experiment was repeated on G30 GCs.

[2] = test system: G30 GCs (patient-derived glioma cells); assay: CellTiter-Glo luminescent cell viability assay, G30 GCs; type: cell-based, human; details: same experiment as G9 (80 hours, CellTiter-Glo), read-out: IC50 (potency) on G30 GCs
Method: The cytotoxicity of the PtIV-M13 conjugate was evaluated against patient-derived glioma cells (GCs). To evaluate the in vitro efficacy of the conjugate, G9 neurospheres were treated with PtIV-M13, prodrug 4, and cisplatin for 80 hours. After treatment, the potency of the compounds was assessed by the CellTiter-Glo luminescent cell viability assay (FIGS. 2A and 2B). The assay involves lysis of the cells and quantitation of the amount of ATP present, which is directly proportional to the number of living cells in culture. […] However, prodrug 4 was not potent, perhaps due to an inability to enter cells (FIG. 2A). As a result, in the follow-up in vitro experiment with another GC line, PtIV-L13 was used as a control instead as this should have similar properties to the PtIV-M13, only without the perfluoroaryl. The same experiment was repeated on G30 GCs.

[3] = Pharmacokinetics in healthy mice: platinum in serum and brain by GFAAS; details: tail vein; for brain distribution of platinum over time / serum concentration of platinum over time: 100 μL of 100 μM (~2.5 mg/kg), 1, 2.5 and 5 hours
Method: Pharmacokinetic and biodistribution studies were performed in healthy mice. For pharmacokinetics, 100 μL of a 100 μM solution of PtIV-M13 or PtIV-L13 dissolved in saline (corresponding to a dose of ˜2.5 mg/kg) were injected into the tail veins of mice. The brain and a blood sample were isolated at 1, 2.5, and 5 hours. A portion of the brain was dissolved in nitric acid and the amount of platinum in the brain and serum were quantified by GFAAS. […] The error bars are the standard deviation from three different animals injected with the compound. […] The error bars are the standard deviation from three different animals injected with the compound.

[4] = Biodistribution in mice: platinum in organs by GFAAS; details: tail vein, 100 μL of 100 μM in saline, after five hours
Method: To study the biodistribution, 100 μL of a 100 μM solution of PtIV-M13, PtIV-L13, or cisplatin dissolved in normal saline were injected into the tail vein of mice. After five hours, the mice were sacrificed and the brain, heart, lungs, kidney, spleen and liver were removed. The amount of platinum in each organ was measured by dissolving a portion of the respective organ in nitric acid and then quantifying the amount of platinum by GFAAS (supporting information).

Row | IC50 against the G9 cells ([1]; treated for 80 hours, CellTiter-Glo) | SMILES | IC50 [1] | IC50 [2] | brain distribution of platinum over time [3] | serum concentration of platinum over time [3] | brain uptake versus linear control PtIV-L13 ([3]; ~2.5 mg/kg, brain platinum read-out) | stability in serum versus linear control PtIV-L13 ([3]; ~2.5 mg/kg, serum platinum read-out) | increase in the amount of platinum in the brain compared with cisplatin [4]
1 | – | CC[C@H](C)[C@H](NC(=O)[C@H](CCCCN)NC(=O)CNC(=O)[C@H](CC(C)C)NC(=O)[C@H](CC(C)C)NC(=O)[C@H](Cc1ccc(O)cc1)NC(=O)CNC(=O)[C@H](C)NC(=O)CCC(=O)O)C(=O)N[C@@H](CC(N)=O)C(=O)N[C@@H](CC(C)C)C(=O)N[C@@H](CCCCN)C(=O)N[C@@H](C)C(=O)N[C@H]1CSc2c(F)c(F)c(c(F)c2F)-c2c(F)c(F)c(c(F)c2F)SC[C@@H](C(=O)N[C@@H](CC(C)C)C(N)=O)NC(=O)[C@H](CCCCN)NC(=O)[C@H](CCCCN)NC(=O)[C@H](C)NC(=O)[C@H](CC(C)C)NC(=O)[C@H](C)NC(=O)[C@H](C)NC1=O [PtIV-M13] (Suc-AGYLLGKINLKACAALAKKCL-NH2; linker 13-20 via Perfluorobiphenyl(4,4')) | 4.51 ± 0.22 µM | 4.04 µM | increased over time | decreased over time | more brain uptake | more stable in serum | 15 fold
2 | – | CC[C@H](C)[C@H](NC(=O)[C@H](CCCCN)NC(=O)CNC(=O)[C@H](CC(C)C)NC(=O)[C@H](CC(C)C)NC(=O)[C@H](Cc1ccc(O)cc1)NC(=O)CNC(=O)[C@H](C)NC(=O)CCC(=O)O)C(=O)N[C@@H](CC(N)=O)C(=O)N[C@@H](CC(C)C)C(=O)N[C@@H](CCCCN)C(=O)N[C@@H](C)C(=O)N[C@@H](CO)C(=O)N[C@@H](C)C(=O)N[C@@H](C)C(=O)N[C@@H](CC(C)C)C(=O)N[C@@H](C)C(=O)N[C@@H](CCCCN)C(=O)N[C@@H](CCCCN)C(=O)N[C@@H](CO)C(=O)N[C@@H](CC(C)C)C(N)=O [PtIV-L13] (Suc-AGYLLGKINLKASAALAKKSL-NH2) | – | 28.8 µM | increased over time | decreased over time | – | – | –
3 | not potent | CCCCNC(=O)[O][Pt]([NH2])([NH2])([Cl])([Cl])[O]C(=O)CCC(=O)O [prodrug 4] | – | – | – | – | – | – | –
4 | – | N.N.[Cl][Pt][Cl] [cisplatin, reference compound] | 4.34 ± 0.66 µM | – | – | – | – | – | –
